Laboratory results: article PMC8938473

Biological target: T1, His6-CRP (cAMP receptor protein) (Shewanella putrefaciens CN32) (UniProt A0ABX8XCW1)
T1 sequence: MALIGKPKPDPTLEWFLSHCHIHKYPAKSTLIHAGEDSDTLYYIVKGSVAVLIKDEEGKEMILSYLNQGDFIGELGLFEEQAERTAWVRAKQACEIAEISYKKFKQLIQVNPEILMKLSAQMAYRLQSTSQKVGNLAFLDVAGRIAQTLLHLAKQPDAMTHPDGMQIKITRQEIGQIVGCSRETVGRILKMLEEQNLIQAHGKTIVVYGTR
Assay: EMSA
Conditions: EMSA per DIG Gel Shift Kit 2nd Generation (Roche) protocol, 1 uM cAMP when necessary; buffer, salt, pH and temperature not given

“ACCGATCCCATAATTAGCTCCCAACACCCAAGTGTTAATCCAAACAAAGGCCCACAAATCCAACAAATGTATGGAAGTGTGATACAAGTGGTGGAATTTTAGCTAATGAGCGAATGGAAGTCAATTTTTTGACGCGCCTCTATCGCTTGGTATTAAGGCTTTTTCTTGCGCATTACCTGTAAAATTGACGCTGGTTTTGTATAAAACTAGATGTTGTATGTTTATTTGTA (double strand) [bpfA-pro]” was tested, and the binding was “binds”.
